Data: US20230064378A1 (Eli Lilly, published 2023)
Positions count from the first letter of the chain named.

T1: human IL-4Rα on cells (human, UniProt P24394 26-825)
T1 sequence: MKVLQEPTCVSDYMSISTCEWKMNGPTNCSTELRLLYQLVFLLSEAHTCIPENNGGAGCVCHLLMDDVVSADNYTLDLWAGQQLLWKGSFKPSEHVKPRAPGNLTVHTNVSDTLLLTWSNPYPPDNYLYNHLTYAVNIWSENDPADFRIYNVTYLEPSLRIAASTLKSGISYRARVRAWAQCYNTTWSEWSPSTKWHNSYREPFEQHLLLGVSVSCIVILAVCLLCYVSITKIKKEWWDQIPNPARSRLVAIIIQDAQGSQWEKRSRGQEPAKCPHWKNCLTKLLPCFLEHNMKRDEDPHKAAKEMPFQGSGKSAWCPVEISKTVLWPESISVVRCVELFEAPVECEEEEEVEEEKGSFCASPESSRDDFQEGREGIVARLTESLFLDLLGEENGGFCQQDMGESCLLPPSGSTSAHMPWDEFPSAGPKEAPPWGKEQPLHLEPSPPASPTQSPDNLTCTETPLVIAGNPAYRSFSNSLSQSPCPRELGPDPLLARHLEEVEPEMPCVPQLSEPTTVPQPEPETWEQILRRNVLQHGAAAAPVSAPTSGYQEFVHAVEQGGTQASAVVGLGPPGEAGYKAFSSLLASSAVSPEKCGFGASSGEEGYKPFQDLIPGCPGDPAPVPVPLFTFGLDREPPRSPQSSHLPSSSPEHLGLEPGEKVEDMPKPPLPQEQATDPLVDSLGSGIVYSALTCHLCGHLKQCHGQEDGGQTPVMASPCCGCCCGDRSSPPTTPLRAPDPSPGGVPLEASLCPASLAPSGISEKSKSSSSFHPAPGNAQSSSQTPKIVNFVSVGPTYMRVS

B1: 5F3 IgG4PAA (antibody, V domains shown)
VH: QVQLVESGGGLVQPGGSLRLSCAASGFTFSISSMNWVRQAPGKGLEWVSYISRATGAIYYADSVKGRFTISRNNAKNSLYLQMNSLRDEDTAVYYCAREPVFDYWGQGTLVTVSS
VL: DIQMTQSPSAMSASVGDRVTITCRASQGISNYLAWFQQKPGKVPTRLIYAASSLQSGVPSRFSGSGSGTEFTLTISSLQPEDFATYYCLQHNSYPRTFGQGTKVEIKR
B2: 5559 IgG4P KRQ 124C/378C (antibody)
heavy: QVQLVESGGGLVQPGGSLRLSCVASGFTFSHSSMNWVRQAPGKGLEWVSYISRATGAVYYADSVKGRFTISRDNAKNSLYLQMNSLRDEDTAVYYCAREPVFDYWGQGTLVTVSSASTKGPCVFPLAPCSRSTSESTAALGCLVKDYFPEPVTVSWNSGALTSGVHTFPAVLQSSGLYSLSSVVTVPSSSLGTKTYTCNVDHKPSNTKVDKRVESKYGPPCPPCPAPEFLGGPSVFLFPPKPKDTLMISRTPEVTCVVVDVSQEDPEVKFNWYVDGVEVHNAKTKPREEQFNSTYRVVSVLTVLHQDWLNGKEYKCKVSNKGLPSSIEKTISKAKGQPREPQVYTLPPSREEMTKNQVSLTCLVKGFYPSDICVEWESNGQPENNYKTTPPVLDSDGSFFLYSRLTVDKSRWQQGNVFSCSVMHEALHNHYTQKSLSLSLG
light: DIQMTQSPSAMSASVGDRVTITCRASQDISNYLAWFQQKPGKVPTRLIYAASSLQSGVPSRFSGSGSGTEFTLTISSLQPEDFATYYCLQWSSYPRTFGQGTKVEIKRTVAAPSVFIFPPSDEQLKSGTASVVCLLNNFYPREAKVQWKVDNALQSGNSQESVTEQDSKDSTYSLSSTLTLSKADYEKHKVYACEVTHQGLSSPVTKSFNRGEC
B3: 8660 IgG4P 124C/378C (antibody, V domains shown)
VH: B1 VH with I31H, I58V, N73D
VL: B1 VL with H91W, N92S
B4: 5559-Alexa Fluor-647 (antibody, V domains shown)
VH: B1 VH with A23V, I31H, I58V, N73D
VL: DIQMTQSPSAMSASVGDRVTITCRASQDISNYLAWFQQKPGKVPTRLIYAASSLQSGVPSRFSGSGSGTEFTLTISSLQPEDFATYYCLQWSSYPRTFGQGTKVEIK
modifications: Antibody conjugated to Alexa Fluor 647; the attachment sites are not stated and the letters do not carry the dye.
B5: 5559 IgG1A 124C/378C (antibody)
heavy: not shown
light: B2 light

What was measured:
human IL-4Rα on cells [1] = biological target: T1, human IL-4Rα on cells; assay: cell-based or functional assay
human IL-4Rα on cells [2] = biological target: T1, human IL-4Rα on cells; assay: cell-based or functional assay; remark: listed apart in the source
human IL-4Rα on cells [3] = biological target: T1, human IL-4Rα on cells; assay: cell-based or functional assay; remark: listed apart in the source
human IL-4Rα on cells [4] = biological target: T1, human IL-4Rα on cells; assay: cell-based or functional assay; remark: listed apart in the source
human IL-4Rα on cells [5] = biological target: T1, human IL-4Rα on cells; assay: cell-based or functional assay; remark: listed apart in the source
Human C1q = biological target: T2, Human C1q (human, UniProt P02745 23-245; P02746 28-253; P02747 29-245); assay: ELISA, antibody coated, C1q detected with anti-C1q-HRP
T2 construct: Bought (MS Biomedical); also called complement component C1q
T2 sequence (P02745 23-245 limits assumed, chain 1 of 3): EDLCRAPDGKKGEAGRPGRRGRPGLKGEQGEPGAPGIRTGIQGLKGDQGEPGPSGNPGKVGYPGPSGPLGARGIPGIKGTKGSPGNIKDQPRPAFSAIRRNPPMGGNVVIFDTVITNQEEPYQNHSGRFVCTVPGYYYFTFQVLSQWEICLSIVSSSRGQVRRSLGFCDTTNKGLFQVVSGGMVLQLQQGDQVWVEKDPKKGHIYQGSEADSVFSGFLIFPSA
T2 sequence (P02746 28-253 limits assumed, chain 2 of 3): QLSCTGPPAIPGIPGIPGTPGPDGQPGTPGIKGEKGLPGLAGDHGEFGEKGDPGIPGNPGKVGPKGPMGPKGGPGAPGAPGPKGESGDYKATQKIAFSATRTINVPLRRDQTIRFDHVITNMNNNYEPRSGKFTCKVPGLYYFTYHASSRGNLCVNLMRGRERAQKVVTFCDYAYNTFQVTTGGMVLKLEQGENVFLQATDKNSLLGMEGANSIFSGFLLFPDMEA
T2 sequence (P02747 29-245 limits assumed, chain 3 of 3): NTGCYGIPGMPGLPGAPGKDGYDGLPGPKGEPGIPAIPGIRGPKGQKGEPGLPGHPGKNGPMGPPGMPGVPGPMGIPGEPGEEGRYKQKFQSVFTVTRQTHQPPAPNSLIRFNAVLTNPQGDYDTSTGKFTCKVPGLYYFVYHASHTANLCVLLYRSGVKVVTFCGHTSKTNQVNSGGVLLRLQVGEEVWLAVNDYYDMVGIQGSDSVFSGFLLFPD
Protocol: The binding of the exemplified anti-IL-4Rα antibodies to human C1q was evaluated by ELISA. 96-well microplates were coated with 100 μL/well of each exemplified antibody diluted in DPBS (Dulbecco's HyClone) from 10 μg/mL to 0.19 g/mL, and incubated overnight at 4° C. The coating reagent was removed, plates were blocked with 200 μL/well casein blocking buffer (Thermo) and incubated for 2 hours at room temperature (RT). Plates were washed 3 times with wash buffer (1×TBE with 0.05% Tween 20), and 10 μg/mL Human C1q (MS Biomedical) diluted in casein blocking reagent is added at 100 μL/well and incubated for 3 hours at RT. Humanized IgG1 and humanized IgG4P isotype control antibodies were used as positive and negative controls respectively. Plates were then washed three times with wash buffer and 100 L/well of a 1:800 times dilution of Sheep anti-human C1q-HRP (Abcam #ab46191) in casein blocker was added and incubated for 1 hour at RT. The plates were then washed 6 times with wash buffer, and 100 μL/well of TMB Substrate (Pierce) was added to each well and incubated for 7 minutes. 100 μL/well of 1 N HCl was added to stop the reaction. Optical density was immediately measured at 450 nm on a colorimetric microplate reader. Data was analyzed using SoftMax Pro 7.1 Data Acquisition and Analysis Software.

human IL-4Rα on cells [6] = biological target: T1, human IL-4Rα on cells; assay: flow cytometry staining of primary human B cells (Th2 cells also confirmed IL-4Rα+)
Description: Flow cytometry staining was used to assess cell purity on a BD LSRFortessa Cell Analyzer.

| Binder | IL-4 IC50 (nM), IL-4 induced SEAP activity in HEK-Blue cells (human IL-4Rα on cells [1]) | IL-13 IC50 (nM), IL-13 induced SEAP activity in HEK-Blue cells (human IL-4Rα on cells [1]) | binding result (Human C1q) | further results |
| --- | --- | --- | --- | --- |
| B1 | 3.45 nM | > 35 nM |  |  |
| B2 | 0.08 nM | 0.67 nM | no binding | Inhibition of IL-4 induced STAT6 phosphorylation, B cells IC50 (human IL-4Rα on cells [2]): 0.05 µg/mL; Inhibition of IL-4 induced STAT6 phosphorylation, T cells IC50 (human IL-4Rα on cells [2]): 0.07 µg/mL; Inhibition of IL-13 induced STAT6 phosphorylation in B cells IC50 (human IL-4Rα on cells [3]): 0.06 µg/mL; Inhibition of IL-4 induced B cell proliferation IC50 (human IL-4Rα on cells [4]): 1.32 nM; Inhibition of CD23 expression on myeloid cells, IL-4 induced IC50 (human IL-4Rα on cells [5]): 18.2 nM; Inhibition of CD23 expression on myeloid cells, IL-13 induced IC50 (human IL-4Rα on cells [5]): 5.37 nM |
| B3 | 0.03 nM | 0.24 nM |  |  |
| B4 |  |  |  | binding result (human IL-4Rα on cells [6]): binds |
| B5 |  |  | no binding |  |
